Results: the NTF2 design screens of Basanta et al. (2020)

Assay: protease stability score; higher = more stable; yeast display proteolysis, trypsin and chymotrypsin;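 also: relative to predicted unfolded state with 0 unfolded-like and 1 meaning tenfold more protease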
For “SEEDEMVRYVFELYAIAIETGDEDTLRNMFDPNAKIKFDGVDIHGRENIKRILREWRSSVHHWQIREKEIYGDKISLNVFQDLRFTIDGQFRRITTEVKVEIIKINGKWFFTHLEYI”, the protease stability score was 0.995. For “DSEEKDQRKASELTMRLLKTGNEDLMSHFFDPDTKVTIGDKEYHGREVLSHLLWEEKERIKGMRFEIKDLHVRYIGDKIRVESHVVLEINGVTLDTELIFHAEKVDGRWLSRSFEVRIT”, the protease stability score was -0.023. “SEEEQFFRLALELFRQVLQTGDEDRLRELVDPNAKHIINGVELHGRSVLEEFLKRYKNLRIHDVEIKDIRVFDGKLELHGIEDGIIGDKRDERRWHLISEKVDGRWIMHEIQID” showed a protease stability score of 1.7. “SEEEVLAHKFLRTWVESMNTGDEKSIMRLFDPNVRYHVGDKEIHGMDEHREEFTELLHRVKNVRFFFDEHDMRNIDGRIEMKGRLEIIQGEYHESTTVELIITKVNGQWVWESVFIK” gave a protease stability score of 0.488. For “DDIKHEILRLMQLAFHYWETGDWEHFHHLADPHVRIDLDFNGKRLDLHGRDELQRVLEEELKRIDHFELHVTSLTDQGNKAELHGHRHIHQGDKRIDVRVINILIVVDGRIKTYSVHIR”, the protease stability score was 0.909. “SEERSRVLHYLSLFIHFLETGDWKALYELMDPDVRIHVGDFELHGRHIFVRHLRDLGIKHVEESIRVRRMILIDGVIHMDGHLERHLIVGDKRVDERHEVHEVILKVDGKWFVHSIHVK” gave a protease stability score of 1.14. Sequence “SEMEEEVRRAMKSFIKDLETGNEKSNHENVDPHARLLINGQEFHGMEHVSRWINKAGIDHFEIDEFRIIGNKIRIDGTITFNGQQHKVRIDVVKVDGRWLVKSLEII” has a protease stability score of 1.29. With “SEDEQESRDIIKLLDKSIETGDEKTATRLADPHMRLDIDGVDLHGREEFVRWVIFVVREMRSRVEHTRVRMYDGRAEVDTTLLFIFEGRELRVESHIIMLKIDGRWIIHEVRIH” the protease stability score was 1.26. Work on “SDEHEWERHLYHVLIHAVNTGDEDLVTEMMDPHVRTDINGVELHGRNELSRQLKEMGIKHLEIEHLDFVGNFLVSQVRVDVNGVDYKSEIIALKINGKWLLSELRLE” yielded a protease stability score of 1.04. “DEDDKLLEKWVKDLREALRTGDEQTLLKLIDPNTRLEIGDKDFHGREVIVKLWKDLGMEIRDVKVHDIKRQGDFLELDIRIDVIINGVRENREHKIYALKVNGKWFVKTQIDE” showed a protease stability score of 2.13. Sequence “DEDEKSVKYAFTMYMQNITTGDEDTLKKYLDPNVKLHFNGVNLHGMESLNKWIREIRHRVRHVHFKDVRVIDGVLIVHIEWEVREDIDGQETEDRYIVRMIVLKIDGKWILRESQIL” has a protease stability score of 1.74. For “SDWNEFLIEVAELLLRWLSTGDEESFHRYVDPRVRLEFNGKELHGREELARFLRHLRWILDHLEFTSREDQGEKFRVEGKSHGHLFFENHFERHDLKNDLNLILVNGRIKEISLRLE”, the protease stability score was 1.42. With “SSQEKFLKELVEIWVELWRTGNEEAFKRLADPDAKNDVNGVYSHGMENVEKLLKHFGIKHVEINDVKVQGDKVIMDGIIEFNGVTIKEHVEIVIVNGRFKELRIRRE” the protease stability score was 0.788. In the case of “DEDDEMWRELFEMYIRLARTGDEKADELLMDPDARIEIGDKRWHGREWTHFFLERVDHVHRVEFRVDDRRIQGDKVDVDGTFILDIHQGDKRIHTSIRSHLTVLKVDGKWRVHQMELR”, the protease stability score is reported as 1.73. In the case of “HEEKHLMDEALELIKYFTETGDERQLTEYADPNVRIDIDGQRFHGREDWEELVREWNSRFKNLKFNFREIDVQGEFIHTRGELNVNGKRFDVRIVSDKINGRWILHSIHFE”, the protease stability score is reported as 1.58. Work on “SEEHERIKRASEEIWRMSETGDFETFFNNFDPNARSDVDGVFNHGREELHRVLLEFWHKLGLTRIDAKVHDDHSFENHLKVDLEERFDGRTVEVRIISRKYDGRWFYTDLIIIRR” yielded a protease stability score of 0.169. “DEDKKIWKHWLEIFVRWFLTGDFDKLRENADPNARSDINGKELHGMETFVEAMRELGFKHVEIHDVHIQGNKVHLDTRVLFDGQHHTTHLHVHIVNGRLKEISIEIR” showed a protease stability score of 1.26. Sequence “DEARVIFEEFIRQLLHAIRTGDFDLYRHLADPHVQVEIGDKVFWGREVITEFEDDLLRRMGVNHVDMRIRIFEIIDGRIHIVGEHRIDVNGRDEHIDTRVLVHKVDGRWVLRRERRT” has a protease stability score of 0.647. Sequence “DEIEELSNRLLELLRHFLQTGDEDMLRKLMDPHVRIDIDGQDFHGRESAVKLLRFWIDHMRWKDRRLRHVRIQGNFIEIDTIEHGEINGREHDLTTHIIASKVNGRWVLHSILFR” has a protease stability score of 1.81. “SEEEKNARDFLRLIFNHVHTGDFRHMSKLFDPHVRIQIGDKVFHGREEAERVWLEWRVEDIKIRHIDIQGDKLIVDTEVHGNFNGRNRNIETEIHVRKVDGKWILESMSVI” showed a protease stability score of 2.54. Sequence “DKRIEWYRHVMEVLFNILLTGNFEILEELLDPHVRIDINGKEYHGREQMIEAWETHLHELRIHDMRIKTIDHQGDKHILTTRVDIDIDGQNVEDRTHIELHIIDGRLKSIILRVS” has a protease stability score of 1.06. “GEEHELTERAIEHFVDIWKTGDEDSLEENIDPHARIDFNGQQLHGREEMYRFMHKVNRQIKGIRLSFKYIDLRIYGDKVIVHNDGVVRVGDKVHDEQTKLEMRKVDGRWLFKSVTVFVL” gave a protease stability score of 1.05. For “DKLDKLLREMLELFNHLLKTGDWDTITKLVDPNVRIDINGQELHGMELILEWWLRLGIRNEHERERDRDSQGEFMHVEGHRHIRINGQSTRFDTILHIEIIDGRIKDIKVNLI”, the protease stability score was 1.12. “DEEKEETEKLAKDILHNIHTGNEEEFLKLADPNTRIVQGDFRTHGRESMHFWMREVRKLFKNVRIHWRLKDVRSFEGHAITHIEVEVSFDGRTDLIRMEIHVIVVNGKIEELIINTR” gave a protease stability score of 0.695. In the case of “SELHEKLKRDMDILEELLLTGDWEKLLKYIDPHARLEIGDKEVHGREILSEVFRDVFERIKNARIHIEHSEAINGRFDIHSEWIVNGKNRRVHIETVVINGRVDKLYFEIRHR”, the protease stability score is reported as 1.05. “DEDKEEIMEAIKEFLTNLQTGDEERLFELFDPHVRLKVNGQLYHGREDLVRHLSELGVKHWRLRSVEIQGEKAIMHGLVNVDGRSVRMIIEAEKVNGRWRMRHFESH” showed a protease stability score of 1.84. Work on “SEEHQTAEKMLRILLHLFLTGDEDKFEHLLDPHVRLHVGDKEIHGRELASKKLHEMVRHLRVRDVHVDTLDIQGNKMHFDTRIDVEQGDKTYILRFHWYNEKVDGRWRIHLVHYD” yielded a protease stability score of 1.68. Sequence “SEEEHEFKKFLEHFLHRLTTGDEDELRRLADPHVRVLINGRHIVGMDEVTKVLRHLREIIEELRIDDIDLQGDKIRMDTRTRIRFIIGDWETKIETRTRIFIWKFNGRWIMEHIERD” has a protease stability score of 0.811. Work on “DEHEEQIEEFWRITVDQWMTGNEELIETYLDPNARVDINGKQTHGREQVTRLMLREMKHMRIKSIKLRRVRIVDGRVDLDGTLHGEVNGREFVLESHVHAEKFDGRWLIRTIKVN” yielded a protease stability score of 2.23. With “SEFEEALKEHVKNIIRSVRTGDENELRRQLDPDAKLRINGQDYVGMEYVFHYLFEWRIHDTELKHIHVQGDKLTFNGETTGTYDGQKIHVRIRIIIWKVDGRWLSEHIDVI” the protease stability score was 1.66. For “SEEEKEMEDFLREFEKNLRTGDEEQIRRLADPHVRMEVNGVEHIGRKHVSRFWYHLVRRADHIHIEVEDMHLVGEKMELIGILRLRVNGRDLTHHHRLIVDKIDGRWFLRESRIH”, the protease stability score was 1.73. Work on “DEEEKEMKEALHEQKRSHETGDERVLEELIDPNVRLDINGREHHGREEAIRLWHELGIDHFDIRDFRVVNGRAHIDGHMVINGQRVDVTLIVHKINGRWRQHHIVVR” yielded a protease stability score of 0.04. “DEIEREAKHVVHLLIHALLTGDERLFEELVDPDARLVINGRHYHGREEVNLAMKEWRLHRFEIKDFQYEWQGNKIISRIHTREDGHVDGQRVETRSELVIFLVKINGRWRMEFVEFRFS” showed a protease stability score of 2.42. Sequence “TEEDERAKHWAERWIRLLETGDFEILTELLDPNVRVEIDINGKKIELHGMETISEDLRRRLEELGFKHFHIRDMKSQGDKSRVRGEVEVNGKPVDVHIVLNIVDGKLKTFRFENK” has a protease stability score of 1.35. Sequence “SELEEEMEKWARDFLRLWFTGDEETTERLFDPHARMDVNGVQNHGWEMMSRQLTHYINHIRIRDLEVETISQQGDKIYVHGQENVEIGDKHLRYHTHIELVIVNGRVQEVRIEVK” has a protease stability score of 0.993. For “HEDEEWAEKMVREFLEATRTGDFESTLQLADPHVRFIINGKDIHGMEDWQEHLEHIRIQYHDIRIEHREVIGDKIYVKTRIDVTIHINGRKHRTVLDVEFIIHKVNGRWIIRELEIR”, the protease stability score was 1.61. Sequence “SEVERLLREILKLVQHAYETGDEETITELVDPHARMDINGKELHGRDMLHLLLRRIDHEHMRVEMKSVEIQGEWAISRGEEQVHVHVNGKKFDLVINSRVVLHKVDGQWVVRSLFYK” has a protease stability score of 0.787. For “DEEKEISELLFRLIFHMLETGDEELSRRLLDPNTRTIWNGRHLHGREASELMRRILHHFVKGATTEIKDLKVQGDWMHFHVTIHIGDKRIRTEIIVHTIDGRIDSMEFRVT”, the protease stability score was 1.39. With “SEDERRFREALRIWFQLVRTGDEEELKHFFDPNVRIHIGDKTFHGMELVLRQIVEEAREIRVRSVTIHELDRQGEWIHMDVRIDEEINGRRIHHSVEIIALKINGKWFFHSIIIR” the protease stability score was 1.4. For “HEEEELLERAMKELEHILRTGDWELHEKNADPHVKLDVNGRIVHGRELVITVLRRLFEELGVDHIHLHDFKVVGDKMHIDLRIHVGDKEFQLEIIIIKIDGRWHIHSERFN”, the protease stability score was 0.363. Sequence “SEDEEELNRVLKELLHAMVTGNEELWSRLVDPNYRVTVGDFRLHGMEEYSRILHEWRVEIREFRITSRTTVDGRIFIDAHFTEEIKQGDKVTFVNTRIRLIMIKVDGRWHVESREIR” has a protease stability score of 0.484. Sequence “SHLEEHLKENLKREEEARRTGDFRFFSRLADPHVKIIINGVELHGMETYNEHWRQIWHDSHHMEITSIDVQGDKIEADIRIIEHGRINGVRESIVLTVRLRFEKINGRWVLTMIIIE” has a protease stability score of 0.077. With “DEHRKLIEELAEKLIEALWTGDERRIRELADPNVRMDYGEFKIHGRDLMVETLKHEMKKFKNVRLINHHVTVQGEFINIDMEVRFDGVSHRVEHNWDVVNGVVKEVRIEKN” the protease stability score was 1.09. Sequence “DERESFIKEVMEQFNRDLLTGDEEHFKERADPDVKIIFDGRETHGWKVLHHLLREIRIRHMHIDDYDIQGDKARVHSTADVEYGDKEDELKIEIRLVVINGRLKEVSIIFR” has a protease stability score of 1.16. In the case of “DEDETFMREFLKELIHSLHTGDEETLLRLADPHTRVVINGRTLIGWETFDKLLKEARVHHHEIKRVRFFDGQVETDTRTDGRIDGVRVEIETTLIVKKVNGRWYMRSVIIT”, the protease stability score is reported as 0.686. Work on “SELNHSVRRAIEIFERVSKTGDEREIRDLADPNVKLDFDGREHHGWEWFVRFMKEIRIKDHRIRDVELIGEFVIIHGELEMEINGVDIRTEVEFYVFKINGKWYLKRLIIR” yielded a protease stability score of 1.92. “NEDEEEARRWLEFFIKLYETGDEHMLEKMIDPDTRSYIDGKEFVGREEIRKLLRHLRIEHIHVKRFRAVNGKIDFDTHIVGEFNGRRKNTDVHIRATKIDGQWYLHEVDWK” showed a protease stability score of 1.64. “SEDEHFFRLVTRWIVRALLTGDEDSLQELLDPHVKFEINGRDFHGRESVYRAVLEIRRNDLRMKREHYHVQGDFVRSELTIEEELVIGDKIVTIESRLLLIILKINGRWYLEKMEVHFK” gave a protease stability score of 1.41. “DEDQKETEEAIKELEKLSKTGNEHDFLRYFDPNMRVEIGDKEIWGRERALEIFHELGVKHIEVKRVDVQGDKIRMDTLLRVNGQELHTQVVALKINGQWILESYRVE” showed a protease stability score of 1.09. With “DEHQEEIKEMFRRMIHALETGDEDFFNHLADPHVLFHEHFNGRSFELHGREEFSKWLQSHREEIRLRNVHYHDIRIYNGVVHFDGRIVWHQGDKTIDRKVHWRTFVIDGRAKKVEIHVK” the protease stability score was 0.621.
